US20240050600A1, “Radiopharmaceuticals, uses thereof, and methods for the production thereof” (priority 2020, published 2024)

Test: in vivo
Parameters: species or system Balb/c nude mice
Details: male, Balb/c nude, mouse, iv, total radioactivity
Description: Healthy male Balb/c nude mice (˜18 g) from 8 weeks old were obtained from the ARC and used for this study. Mice were imported into the CAI animal holding facility and monitored for 1 week prior to the study in order to acclimatise to the environment prior to injection of cells. All animals were provided with free access to food and water before and during the imaging experiments which were approved by the University of Queensland Animal Ethics Committee (Approval #AIBN/CAI/105/19/ARC/NHMRC).
8-week-old male Balb/c nude mice were injected (27 G needle) subcutaneously with PC3 ([…]) cells in 50 μL of 50:50 matrigel and cells in phosphate buffered saline into the right flank of each mouse. There was no evidence of ulceration at the time of dosing; the animals were closely monitored and remained in good condition apart from the growth of tumours. […] Labelled peptides were injected via the tail vein (29 G needle; ˜2-3 MBq) and then mice were imaged using the Siemens Inveon PET-CT instrument at the various timepoints.
The injection syringe was filled with the radioisotope solution (approximately 150 μL) and the activity in the syringe was measured using a dose calibrator (Capintec CRC-25) with a calibration factor of 35. The activity left in the syringe after the tail vein injection was measured using the same dose calibrator and the total volume injected in each mouse was calculated.
Organs were excised at 24 hours, with the percentage of injected dose of the administered compound determined by ex vivo gamma counting (Table 2). Values are averages across 4 mice.

[1] = Percentage of injected dose in Blood
[2] = Percentage of injected dose in GI Tract
[3] = Percentage of injected dose in Heart
[4] = Percentage of injected dose in Kidneys
[5] = Percentage of injected dose in Liver
[6] = Percentage of injected dose in Lungs
[7] = Percentage of injected dose in Pancreas
[8] = Percentage of injected dose in Spleen
[9] = Percentage of injected dose in Tail
[10] = Percentage of injected dose in Tumour

Row | SMILES | tissue uptake at 24 h [1] [%ID/g] | tissue uptake at 24 h [2] [%ID/g] | tissue uptake at 24 h [3] [%ID/g] | tissue uptake at 24 h [4] [%ID/g] | tissue uptake at 24 h [5] [%ID/g] | tissue uptake at 24 h [6] [%ID/g] | tissue uptake at 24 h [7] [%ID/g] | tissue uptake at 24 h [8] [%ID/g] | tissue uptake at 24 h [9] [%ID/g] | tissue uptake at 24 h [10] [%ID/g]
1 | CC(C)CC(NC(=O)CC(O)C(CC(C)C)NC(=O)C(Cc1c[nH]cn1)NC(=O)CNC(=O)C(NC(=O)C(C)NC(=O)C(Cc1c[nH]c2ccccc12)NC(=O)C(CCC(N)=O)NC(=O)C(Cc1ccccc1)NC(=O)CCOCCOCCOCCOCCNC(=O)CCCC(=O)NC12CNCCNCC(NC(=O)CCCC(=O)NCCOCCOCCOCCOCCC(=O)NC(Cc3ccccc3)C(=O)NC(CCC(N)=O)C(=O)NC(Cc3c[nH]c4ccccc34)C(=O)NC(C)C(=O)NC(C(=O)NCC(=O)NC(Cc3c[nH]cn3)C(=O)NC(CC(C)C)C(O)CC(=O)NC(CC(C)C)C(N)=O)C(C)C)(CNCCNC1)CNCCNC2)C(C)C)C(N)=O (stereo not drawn) [Sar(BBN)2] | 0.1 ± 0.05 | 0.44 ± 0.04 | 0.21 ± 0.03 | 6.81 ± 0.67 | 16.8 ± 1.55 | 0.36 ± 0.12 | 0.84 ± 0.06 | 1.47 ± 0.2 | 0.28 ± 0.05 | 2.13 ± 0.86
2 | CC(C)C[C@H](NC(=O)C[C@H](O)[C@H](CC(C)C)NC(=O)[C@H](Cc1c[nH]cn1)NC(=O)CNC(=O)[C@@H](NC(=O)[C@H](C)NC(=O)[C@H](Cc1c[nH]c2ccccc12)NC(=O)[C@H](CCC(N)=O)NC(=O)[C@@H](Cc1ccccc1)NC(=O)CCOCCOCCOCCOCCNC(=O)CCCC(=O)NC12CNCCNCC(NC(=O)CCCC(=O)NC(CCCCNC(=O)CCCc3ccc(I)cc3)C(=O)O)(CNCCNC1)CNCCNC2)C(C)C)C(N)=O (stereo partly drawn) [Sar(ABG)(BBN)] | 7.22 ± 0.79 | 1.93 ± 0.46 | 3.1 ± 0.53 | 4.29 ± 0.54 | 2.96 ± 0.3 | 4.85 ± 0.93 | 6 ± 1.17 | 2.68 ± 0.33 | 2.06 ± 0.3 | 22.3 ± 11
3 | CC(C)C[C@H](NC(=O)C[C@H](O)[C@H](CC(C)C)NC(=O)[C@H](Cc1c[nH]cn1)NC(=O)CNC(=O)[C@@H](NC(=O)[C@H](C)NC(=O)[C@H](Cc1c[nH]c2ccccc12)NC(=O)[C@H](CCC(N)=O)NC(=O)[C@@H](Cc1ccccc1)NC(=O)CCOCCOCCOCCOCCNC(=O)CCCC(=O)NC12CNCCNCC(N)(CNCCNC1)CNCCNC2)C(C)C)C(N)=O [Sar(BBN)] | 0.13 ± 0.04 | 0.3 ± 0.07 | 0.24 ± 0.02 | 3.55 ± 0.79 | 1.52 ± 0.18 | 0.31 ± 0.08 | 0.23 ± 0.02 | 0.38 ± 0.06 | 0.56 ± 0.87 | 4.09 ± 0.52
